Source: patent publication US20240252641A1

Assays:
[1] = biological target: CD70 on cells (CHO-CD70, JVM-3, U266, Raji, THP-1, T cells) (human) (UniProt P32970); assay: on Raji cells
[2] = biological target: CD70 on cells (CHO-CD70, JVM-3, U266, Raji, THP-1, T cells) (human) (UniProt P32970); assay: on U266 cells
[3] = biological target: CD70 on cells (CHO-CD70, JVM-3, U266, Raji, THP-1, T cells) (human) (UniProt P32970); assay: on JVM-3 cells

CD70 on cells (CHO-CD70, JVM-3, U266, Raji, THP-1, T cells) (human), sequence (P32970 whole entry): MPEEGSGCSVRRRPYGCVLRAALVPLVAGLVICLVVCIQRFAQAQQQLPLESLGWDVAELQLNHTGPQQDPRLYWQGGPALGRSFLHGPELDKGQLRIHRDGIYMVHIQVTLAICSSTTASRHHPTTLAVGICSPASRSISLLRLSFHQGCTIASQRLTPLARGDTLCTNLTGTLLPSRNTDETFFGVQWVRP

cell binding [1]: 68900
cell binding [2]: 239000
cell binding [3]: 225000
Substance: 1F6 (clone ID in Table 3, alloy mouse hybridoma) (antibody)
